Molecular target: receptor-binding domain (RBD) (residues 319-541) of the SARS-CoV-2 spike (S) protein (SARS-CoV-2, ancestral Wuhan-Hu-1 …, UniProt P0DTC2)

| Binder | binding result |
| --- | --- |
| XG005 (antibody, V domains shown) VH: QVTLRESGPTLVKPKQTLTLTCTFSGFSLSTPGGGVGWIRQPPGKALEWLALIYWDDDKRYSPSLKSSLTITKDTSKNQVVLTMTNMDPVDTATYYCARLTAADTIFDCWGQGTLVTVSS VL: QSALTQPASVSGSPGLSITISCTATSSDVGAYNYVSWYQQHPGQAPKLMIYDVSKRPSGVSNRFSGSKSANTASLTISGLQAEDEADYYCSSYTTTSVVFGGGTKLTVL | binds |
| XGv265 (antibody, V domains shown) VH: QITLKESGPTLVKPTQTLTLTCNFSGFSLNTYGVGVGWIRQPPGKALEWLALIYWDGDERYGPFFKNKVTIAKDTSKNQVVLTMTNMDPVDTATYYCARHLIPTIFDYWGQGTLVTVSS VL: QSALTQPASVSGSPGQSITISCTGTSSDVGGSNYVSWYQHHPDRAPKLLIYEVTNRPSGVSNRFSGSKSANTASLTISGLQAEDEADYYCSSYTTTSTHILFGGGTKLTV | binds |
